These results are taken from patent US20240084003A1 (SIMCERE ZAIMING PHARMACEUTICAL, published 2024).

By EC50 is commonly meant the concentration at which the effect is half-maximal.

Assay [1] deals with T1, human CD22-ECD-His protein (human, UniProt P20273 20-687).
T1 construct: Made in house in HEK293E; also called hCD22-ECD-His; recombinant human CD22-ECD His protein; not shown: His tag
T1 sequence: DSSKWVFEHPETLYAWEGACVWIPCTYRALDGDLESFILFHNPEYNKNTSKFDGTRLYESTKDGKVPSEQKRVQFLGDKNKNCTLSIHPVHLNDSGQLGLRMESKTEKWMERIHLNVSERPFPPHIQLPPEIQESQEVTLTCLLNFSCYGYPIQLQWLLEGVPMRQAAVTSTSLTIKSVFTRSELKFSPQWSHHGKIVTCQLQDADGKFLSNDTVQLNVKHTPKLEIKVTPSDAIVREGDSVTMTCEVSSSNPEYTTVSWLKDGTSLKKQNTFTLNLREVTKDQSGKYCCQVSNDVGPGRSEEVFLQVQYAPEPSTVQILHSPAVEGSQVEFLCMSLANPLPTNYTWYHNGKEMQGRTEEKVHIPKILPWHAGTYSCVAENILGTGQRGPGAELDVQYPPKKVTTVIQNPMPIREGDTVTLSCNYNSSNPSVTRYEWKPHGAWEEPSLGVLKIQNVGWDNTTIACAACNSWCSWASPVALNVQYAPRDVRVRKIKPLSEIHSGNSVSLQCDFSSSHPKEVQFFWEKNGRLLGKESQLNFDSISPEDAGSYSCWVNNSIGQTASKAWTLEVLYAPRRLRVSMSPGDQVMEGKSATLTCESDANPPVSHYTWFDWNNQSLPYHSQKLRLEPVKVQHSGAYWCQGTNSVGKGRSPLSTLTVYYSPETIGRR
The assay is described as follows: ELISA, Ab 0.01 nM. The gist of the method:
(§1)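 TMB colour read-out, stopped with 1.0 N HCl after 30 min at room temperature, measures binding of CD22 human-murine chimeric antibodies to plate-coated CD22-ECD-His (2 μg/mL, overnight 4 °C). Antibody and HRP secondary steps each ran 2 h at 37 °C.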
On the technique in general: ELISA stands for enzyme-linked immunosorbent assay.

In assay [2] the target is T1, human CD22-ECD-His protein. The assay is described as follows: ELISA, Ab 0.10 nM. In outline:
as §1

Assay [3] has as its target T1, human CD22-ECD-His protein. The assay is described as follows: ELISA, Ab 10.00 nM. The gist of the method:
as §1

In assay [4] the target is T1, human CD22-ECD-His protein. The assay is described as follows: ELISA, Ab 0.00001 nM. The gist of the method:
as §1

The target in assay [5] is T2, monkey CD22 on HEK293T-monkey CD22 cells (monkey).
T2 construct: full-length entry expressed on stably transfected HEK293T cells
T2 chain: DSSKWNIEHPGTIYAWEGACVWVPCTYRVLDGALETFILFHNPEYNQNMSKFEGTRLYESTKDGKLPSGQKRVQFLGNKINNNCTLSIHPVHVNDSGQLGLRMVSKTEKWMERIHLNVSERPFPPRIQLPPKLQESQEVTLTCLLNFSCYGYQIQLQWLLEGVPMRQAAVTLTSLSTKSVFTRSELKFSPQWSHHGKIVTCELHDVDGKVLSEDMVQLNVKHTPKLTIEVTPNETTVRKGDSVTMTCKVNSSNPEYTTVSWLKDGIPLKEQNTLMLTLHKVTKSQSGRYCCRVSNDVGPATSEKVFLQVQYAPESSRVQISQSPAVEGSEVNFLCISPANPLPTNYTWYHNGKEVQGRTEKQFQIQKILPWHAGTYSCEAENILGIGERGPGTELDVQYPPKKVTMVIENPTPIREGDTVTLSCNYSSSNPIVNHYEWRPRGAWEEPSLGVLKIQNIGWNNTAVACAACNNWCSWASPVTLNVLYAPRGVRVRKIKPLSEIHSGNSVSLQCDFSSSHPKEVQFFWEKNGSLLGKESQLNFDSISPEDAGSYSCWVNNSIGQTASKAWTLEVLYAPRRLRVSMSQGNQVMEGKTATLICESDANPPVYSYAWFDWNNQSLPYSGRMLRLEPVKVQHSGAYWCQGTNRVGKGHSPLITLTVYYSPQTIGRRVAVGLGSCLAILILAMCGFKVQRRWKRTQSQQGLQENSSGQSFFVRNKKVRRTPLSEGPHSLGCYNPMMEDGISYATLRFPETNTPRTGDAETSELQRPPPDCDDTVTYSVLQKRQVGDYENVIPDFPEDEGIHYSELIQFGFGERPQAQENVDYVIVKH
The assay is described as follows: FACS, HEK293T-monkey CD22 cells. On the procedure: For suspension cell Raji, the medium supernatant was directly centrifuged and discarded, and the cell pellet was washed 2 times with PBS. After counting the cells in the previous step, the cell pellet was resuspended with [PBS+2% (w/w) BSA] blocking solution to 2×10⁶ cells/ml, and added to a 96-well FACS reaction plate at 50 μl/well, and then the chimeric antibody test sample was added at 50 μl/well, and incubated on ice for 2 hours. The mixture was centrifuged and washed 3 times with PBS buffer, Alexa Flour 488-labeled secondary antibody (purchased from Invitrogen, catalog number: A-11013) was added at 50 μl/well, and incubated on ice for 1 hour. The obtained mixture was centrifuged and washed 5 times with PBS, and FACS (FACS Canto™, purchased from BD Company) was used for detection and result analysis. Data analysis was performed by software (CellQuest) to obtain the mean fluorescence density (MFI)of the cells. And then software (GraphPad Prism8) was used for analysis, data fitting, and EC50 value calculation. […] The same method was used to detect the binding of the chimeric antibodies to endogenous CD22-negative cell MoLT4 cells (purchased from ATCC, CRL-1582) and CHO-K1 cells.
HEK293T-monkey CD22 cells were subjected to FACS detection and data analysis according to the method in Example 5.2.
For orientation: Flow cytometry measures light scatter and fluorescence of single cells or particles in a stream.

B1: F1.17.1 (antibody, human IgG1, kappa, V domains shown)
VH: QVQLKESGPGLVAPSQSLSITCTVSGFSLSRYTVHWVRQPPGKGLEWLGMIWGGGSTDYNSALKSRLSISKDNSKSQVFLKMNSLQTDDTAMYYCARPHDFDAGGFAYWGQGTLVTVSA
VL: QIVLTQSPAILSTSPGEKVTMTCSASSRVNYMYWYQQKPGSSPRLLIYDTSNLASGVPVRFSGSGSGTSYSLTISRMEAEDAATYYCQQWTSYPLTFGAGTKLELKR
notes: Human-murine chimeric IgG1, kappa
As to B1, the OD450 stood at 1.85 OD450 in assay [1], 2.41 OD450 in assay [2], 2.21 OD450 in assay [3] and 0.11 OD450 in assay [4].

B2: F1.200.11 (antibody, human IgG1, kappa, V domains shown)
VH: QNQLVQSGPELKKPGETVKISCKASGYTFTTAGMQWVQKMPGKGFKWIGWINTLSGEPKYAEDFKGRFAFSLETSATTAYLQISNLKNEDTATYFCARAYYSNLYWYFDVWGTGTTVTVSS
VL: DIVMTQSQKFMSTTVGDRVTITCKASQNVVTAVAWYQQKPGQSPKVLIYSASNRYSGVPDRFTGSGSGTDFTLTISNMHSEDLANYFCHQYSSYPFTFGSGTKLEIKR
notes: as for B1
Take B2: the OD450 is 2 OD450 in assay [1], 2.4 OD450 in assay [2], 2.33 OD450 in assay [3] and 0.33 OD450 in assay [4].

B3: F2.55.1 (antibody, human IgG1, lambda, V domains shown)
VH: QVTLKESGPGILQPSQTLSLTCSFSGFSLSTFPLGVGWIRQPSGKGLEWLAHVWWNDDDYYNPALKSRLTISKDTSNTRVFLSVASVDTAETATYYCARLNWDRWYFDVWGTGTTVTVSS
VL: QLVLTQSSSASFSLGASAKLTCTLSSQHSAYTVEWYQQQPLKPPKYVMELKKDGSHSTGDGIPDRFSGSSSGADRYLSISNIQPEDEAIYICGVGDTVKEQFVFGGGTKVTVLG
notes: Human-murine chimeric IgG1, lambda
As to B3, the OD450 amounted to 1.3 OD450 in assay [1], 2.03 OD450 in assay [2], 2.16 OD450 in assay [3] and 0.16 OD450 in assay [4].

B4: F1.224.1 (antibody, human IgG1, kappa, V domains shown)
VH: EVLLHQSGPELVKPGASVKISCKASGYTFTDFNMDWVRQRHGQSLEWIGDVNPNNGGTIYNQKFKGKATLTVDKSSSTVYMDLRSLTSDDTAVYYCVRLGTSDYGEAWFISWGQGTVVTVSA
VL: DIVLTQSPASLAVSLGQRATISCRASQSVSTPRYSFMHWYQQKPGQPPKLLIKYASNLESGFPARFTGSGSGTDFTLNIHPVEEEDTAAYYCQQSWAIPWTFGGGTKLEIKR
notes: as for B1
On to B4, for which the OD450 in assay [1] came to 2.21 OD450; in assay [2] it was 2.37 OD450; in assay [3], 2.43 OD450; in assay [4], 0.17 OD450.

B5: HA22-hIgG1 (antibody, V domains shown)
VH: EVQLVESGGGLVKPGGSLKLSCAASGFAFSIYDMSWVRQTPEKCLEWVAYISSGGGTTYYPDTVKGRFTISRDNAKNTLYLQMSSLKSEDTAMYYCARHSGYGTHWGVLFAYWGQGTLVTVSA
VL: DIQMTQTTSSLSASLGDRVTISCRASQDISNYLNWYQQKPDGTVKLLIYYTSILHSGVPSRFSGSGSGTDYSLTISNLEQEDFATYFCQQGNTLPWTFGCGTKLEIKR
With B5, the OD450 came out at 2.12 OD450 in assay [1], 2.57 OD450 in assay [2], 2.61 OD450 in assay [3] and 0.19 OD450 in assay [4].

B6: F1.120.15 (antibody, human IgG1, kappa, V domains shown)
VH: QVQLQQSGPELVKPGASVKISCKASGNAFSNSWMNWVKQRPGKGLEWIGRVYSEDGDTQYNGKFRDKATLTADRSTSTAYMQLSSLTSEDSAVYFCARWLIYYGTYGAMDYWGQGTSVTVSS
VL: DIQMTQTTSSLSASLGDRVTISCRASQDINNYLNWYHQKPDGTVKLLIYFTSRPYSGVPSRFSGSGSGTDYSLTISNLEQEDIATYFCQQGNTLPWTFGGGTKLEIKR
notes: as for B1
B6: the OD450 in assay [1] is 2.28 OD450; in assay [2], 2.63 OD450; in assay [3] it was 2.61 OD450; in assay [4], 0.12 OD450.

B7: F1.62.10 (antibody, human IgG1, kappa, V domains shown)
VH: QVQLQQSGPELVKPGASVKISCKASGYEFSSIWMNWVKQRPGEGLEWIGRIFPGDGEINYNEKFKGKATLTADRSSTTAYMQLSSLTSEDSAVYFCAGWRIYYGTYGAMDYWGQGTSVTVSS
VL: DIQMTQITSSLSASLGDRVTISCRASQDIGNYLNWYQQKPDGTVKLLIYYTSRLHSGVPSRFSGSGSRTDYSLTISNLQQEDIATYFCQQGNTLPWTFGGGTKLEIKR
notes: human-murine chimeric IgG1 kappa
In the case of B7, in assay [5], the EC50 worked out at 41.1 nM and the “Maximum mean fluorescence intensity” value is 4330 MFI.

B8: HA22-hIgG1 (antibody, V domains shown)
VH: EVQLVESGGGLVKPGGSLKLSCAASGFAFSIYDMSWVRQTPEKCLEWVAYISSGGGTTYYPDTVKGRFTISRDNAKNTLYLQMSSLKSEDTAMYYCARHSGYGTHWGVLFAYWGQGTLVTVSA
VL: DIQMTQTTSSLSASLGDRVTISCRASQDISNYLNWYQQKPDGTVKLLIYYTSILHSGVPSRFSGSGSGTDYSLTISNLEQEDFATYFCQQGNTLPWTFGCGTKLEIKR
Turning to B8, in assay [5], the EC50 amounted to 0.91 nM and the “Maximum mean fluorescence intensity” value amounted to 17100 MFI.

B9: F1.216.2 (antibody, human IgG1, kappa, V domains shown)
VH: QVQLQQSGPEVVRPGASVKISCKASGYAFSSSWMNWMKQRPGKALEWIGRIYPGDGDTNYSGEFKVKATLTADKSSSTAYMQLSSLTSEDSAVYFCAREGSYYSNPWYFDYWGQGTTLTVSS
VL: DVLVTQTPLSLPVSLGDQASISCRSSQSIVQSNGDTYLEWYLQKPGQSPKLLIYKVSNRFSGVPDRFSGSGSGTDFTLKISRVEAEDLGVYYCFQGSHVPFTFGSGTKLEIKR
notes: as for B1
Turning to B9, the OD450 was determined as 2.48 OD450 in assay [1], 2.55 OD450 in assay [2], 2.53 OD450 in assay [3] and 0.2 OD450 in assay [4].

B10: F1.105.11 (antibody, human IgG1, kappa, V domains shown)
VH: EVQLQQSGPVLVKPGASVKMSCKASGYTFSDYFMNWVKQSHGKSLEWIGIINSYSGGTSYNQKFKGKATLTVDKSSSTAYMELNSLTSEDSAVYYCARWMDYWGQGTSVTVSS
VL: DVQITQSPSYLAASPGETITINCRTSESISKHLAWYQEKPGKTNKLLIYSGSTLQSGIPSRFSGSGSGTDFTLTISSLEPEDFAMYYCQQHNEYPWTFGGGTKLEIKR
notes: as for B1
With B10, the OD450 is 1.93 OD450 in assay [1], 2.52 OD450 in assay [2], 2.68 OD450 in assay [3] and 0.08 OD450 in assay [4].

B11: F2.205.9 (antibody, human IgG1, lambda, V domains shown)
VH: QVTLKESGPGILQPSQTLSLTCSFSGFSLSTSGMGVGWIRQPSGKGLEWLAHIWWDDDEYYNPALKSRLTISKDTSKNQVFLKIANVDTADTATYYCARISIPYGYYDWFFDVWGTGTTVTVSA
VL: QAVVTQESALTTSPGETVTLTCRSSTGAVTTRNYANWVQEKPDHLFTGLIGGTNNRAPGVPARFSGSLIGDKAALTITGAQTEDEAIYFCALWYSNHFIFGSGTKVTVLG
notes: as for B3
With B11, the OD450 in assay [1] was 1.48 OD450; in assay [2] it was 2.1 OD450; in assay [3], 2.11 OD450; in assay [4] it was 0.19 OD450.
